This note sets out measurements from paper PMC3212559, “Large-Scale Protein-Protein Interaction Analysis in Arabidopsis Mesophyll Protoplasts by Split Firefly Luciferase Complementation” (PLoS ONE, 2011).

This test deals with T1, C-terminal domain (CTD) of ARF5-FLucC (Arabidopsis, UniProt P93024 793-902).
T1 construct: In the ARF-ARF tests the same CTD stood both as ARFCTD-FLucC and as ARFCTD-FLucN; one molecule for both; also called ARF5CTD-FLucC; auxin response factor 5; source: Arabidopsis mesophyll protoplasts, transfected, in living cells (SFLC) and in lysate (co-IP); not shown: FLucC (firefly luciferase aa 394-550)
T1 sequence (looked up): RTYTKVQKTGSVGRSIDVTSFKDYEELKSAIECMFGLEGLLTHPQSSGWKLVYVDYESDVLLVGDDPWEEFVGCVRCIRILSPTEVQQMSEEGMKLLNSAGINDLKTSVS
As to the kind of experiment: split reporter (BiFC, NanoBiT); SFLC in living Arabidopsis mesophyll protoplasts: Aux/IAA-FLucN or MYB30-FLucN co-expressed with ARFCTD-FLucC or Aux/IAA-FLucC for 6 hr; 10 µg of each construct, 2×10^4 cells, 96-well plate, D-luciferin; relative activity standardised against ARF5CTD-FLucC + IAA28-FLucN. The settings on record: partners not purified.

B1: IAA28-FLucN (natural protein, Arabidopsis, UniProt Q9XFM0 1-175, looked up)
chain: MEEEKRLELRLAPPCHQFTSNNNINGSKQKSSTKETSFLSNNRVEVAPVVGWPPVRSSRRNLTAQLKEEMKKKESDEEKELYVKINMEGVPIGRKVNLSAYNNYQQLSHAVDQLFSKKDSWDLNRQYTLVYEDTEGDKVLVGDVPWEMFVSTVKRLHVLKTSHAFSLSPRKHGKE
notes: Arabidopsis transcription repressor IAA28; also called Aux/IAA-FLucN; source: Arabidopsis mesophyll protoplasts, transfected, in living cells; not shown: FLucN (firefly luciferase aa 1-398)
B1: the “restored luciferase activity, fold over the negative control MYB30-FLucN + ARF5CTD-FLucC” value is around 350 fold.
